Bounds are passed on as bounds.

In assay [1] the target is recombinant human IFNγ protein (R&D systems, 285-IF-100) (human) (UniProt P01579). Nature of the assay: BLI (ForteBio Octet RED96); summary sentence to Table 10. For orientation: BLI is a label-free optical method that tracks binding on a fibre tip over time.
Assay [2] shares this target. Nature of the assay: BLI (ForteBio Octet RED96); antibody captured on AHC anti-hIgG Fc biosensor, recombinant human IFNγ in solution; 1:1 Langmuir fit.
Assay [3] concerns the target T1, recombinant human IFNγ protein (R&D systems, 285-IF-100) (human, UniProt P01579 24-166).
T1 sequence: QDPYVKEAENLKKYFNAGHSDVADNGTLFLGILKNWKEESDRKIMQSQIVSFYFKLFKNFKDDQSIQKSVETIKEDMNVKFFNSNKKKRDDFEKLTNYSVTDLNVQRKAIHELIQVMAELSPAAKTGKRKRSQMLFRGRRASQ
Nature of the assay: cell-based or functional assay.

The target in the next assay is T2, BSA (UniProt P02769 25-607).
T2 construct: also called bovine serum albumin
T2 sequence (P02769 25-607 limits assumed): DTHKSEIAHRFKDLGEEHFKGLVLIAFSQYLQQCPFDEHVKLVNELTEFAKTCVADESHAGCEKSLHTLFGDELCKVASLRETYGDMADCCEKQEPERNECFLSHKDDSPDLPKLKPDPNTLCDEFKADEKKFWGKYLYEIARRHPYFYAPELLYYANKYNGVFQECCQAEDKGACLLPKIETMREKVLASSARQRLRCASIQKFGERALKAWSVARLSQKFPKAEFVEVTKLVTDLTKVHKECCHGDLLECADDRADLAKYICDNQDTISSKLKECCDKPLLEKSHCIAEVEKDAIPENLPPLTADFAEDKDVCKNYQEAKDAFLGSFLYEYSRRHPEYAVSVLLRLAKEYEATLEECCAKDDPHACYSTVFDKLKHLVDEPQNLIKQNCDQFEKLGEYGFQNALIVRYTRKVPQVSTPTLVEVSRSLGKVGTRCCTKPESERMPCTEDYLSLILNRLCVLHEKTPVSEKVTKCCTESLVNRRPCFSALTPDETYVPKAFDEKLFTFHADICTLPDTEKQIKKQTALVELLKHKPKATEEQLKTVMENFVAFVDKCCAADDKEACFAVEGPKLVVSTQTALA
Nature of the assay: ELISA on plate coated with BSA (2 µg/mL). A general note: An ELISA detects its analyte on a solid surface through an enzyme-linked reagent.

Assay [4] deals with T1, recombinant human IFNγ protein (R&D …). Nature of the assay: BLI (ForteBio Octet RED96); summary sentence to Table 9.
For assay [5] the target is unchanged. Nature of the assay: BLI (ForteBio Octet RED96); summary sentence to Table 10.

With AMG811 (antibody), the Kd (commonly the constant that tells how readily two partners part at equilibrium) in assay [1] was less than 0.1 nM.

B1: 2F2 (antibody, from a related filing, V domains shown)
VH: EVQLVESGGGLVKPGESLRLACVASGFNFSDYYMTWIRQAPGKGLEWVSYISNSGSHTYYADAVKGRFTVSRDNAKNSLYLQMTSLRGEDTAIYFCARDPSIMRGTYYMDVWGKGTTVTVSS
VL: QSVLTQPPSASGTPGQRVTISCSGSSSNIGTNPVSWYQQFPGMAPKLLIYFNNQRPSGVPERFSGSKSGTPASLAIGGLQSEDEANYYCASWDDTLNGLVFGGGTKLTVL
Regarding B1, in assay [2], the dissociation constant (Kd) amounted to 0.317 nM; the off-rate (koff) (in general, the rate constant with which the complex falls apart) is 0.000109 s⁻¹; the kon – broadly, the rate constant with which the complex forms – stood at 344000 M⁻¹ s⁻¹.

B2: 1E8 (antibody, from a related filing, V domains shown)
VH: EVQLLESGGGLVQPGGPLRLSCAASGFTFSIYSMNWVRQAPGKGLEWVSSISGSGDNTYYADSVKGRFTITRDSSKNTLYLQMNTLRAEDTAVYFCAKSGRNIISPGFDSWGQGTLVTVSS
VL: QPVLTQPPSASASLGASVTLTCTLNSDYGDYKVDWYQQRPGKGPRFVMRVGTGGIVGSKGDGIPDRFSVLGSGLNRFLTIKNIQEEDESDYYCGADHGSANNFIWVFGGGTKLTVL
In the case of B2, in assay [2], the Kd worked out at 0.261 nM, the koff came to 0.000121 s⁻¹ and the kon was 464000 M⁻¹ s⁻¹.

B3: 2B6 (antibody, human IgG1, lambda, V domains shown)
VH: EVQLVESGGGLVKPGGSLRLSCAASGFPFSRYSMHWVRQAPGKGLEWVSSMTSRTNHKYYADSLKGRFLISRDNDRDSLYLEMNSLGVEDTAIYFCARGYDTSGSDSGVDFQYWGQGTLVTVSS
VL: NFMLTQPHSVSESPGKTITISCTRGRGYIASYYVQWYQQRPGGVPKIVVFEDTQRPSGVPDRISGSIDTSTNSASLTISGLQTEDEADYYCQSYDDANHVIFGGGTKLTVLG
notes: Human IgG1 lambda; also called 2B6 anti-IFNγ mAb
On to B3, for which the “inhibition of HLA-DR expression on THP-1 cells stimulated with 2 ng/mL recombinant human IFN-γ, IC50” value in assay [3] was 3.5 ng/mL. Further, the binding result with BSA is “no binding (tested: 1 µg/mL and 0.1 µg/mL)”. In addition, the Kd in assay [4] was less than 0.1 nM.

B4: BA (antibody, V domains shown)
VH: B3 VH
VL: NFMLTQPLSVSGYPGKTIVISCVRSSGSVASHYVQWFQQRPGSAPAMVIYEDSHRPSGIPDRFSGSVDASSNSASLTISGLKTEDEADYFCQSYYGNNQVLFGGGTKLTVL
notes: Expressed from the same human IgG1 lambda vector as 2A6 and 2B6; also called antibody having the 2B6-VH and 2A6-VL
For B4, the binding result in the assay with BSA is “no binding (tested: 1 µg/mL and 0.1 µg/mL)”.

B5: 2A6 (antibody, human IgG1, lambda, V domains shown)
VH: EVQLVESGGGLVKPGDSLTVSCVASGFTFSNYFIHWVRQAPGKGLEWVATISGRTKYMFYSDSLRGRFTVSRDNANNSVYLHMSSLRGEDTALYYCVRGYDHSDSNSAADLLHWGRGTLVTVSS
VL: NFMLTQPLSVSGYPGKTIVISCVRSSGSVASHYVQWFQQRPGSAPAMVIYEDSHRPSGIPDRFSGSVDASSNSASLTISGLKTEDEADYFCQSYYGNNQVLFGGGTKLTVLG
modifications: partial N-linked glycosylation at position 76 of the VH region
notes: Human IgG1 lambda, cloned from a single patient B cell and expressed in FreeStyle 293-F cells; also called 2A6 anti-IFNγ mAb
Regarding B5, the “inhibition of HLA-DR expression on THP-1 cells stimulated with 2 ng/mL recombinant human IFN-γ, IC50” value in assay [3] is 3.4 ng/mL. Also, the binding result with BSA is “no binding (tested: 1 µg/mL and 0.1 µg/mL)”. Moreover, in assay [4], the Kd is less than 0.1 nM.

B6: AB (antibody, V domains shown)
VH: B5 VH
VL: B3 VL
On to B6, for which, in the assay with BSA, the binding result was “no binding (tested: 1 µg/mL and 0.1 µg/mL)”. Besides, the Kd in assay [5] is less than 0.1 nM.
